These results are taken from PMC3058826.

The target of this experiment is H3(1–15)K4 peptide (UniProt P68431). Briefly: ITC. (ITC needs no label: the signal is the heat of the interaction.)

By Kd is commonly meant the free concentration of one partner at which half of the binding sites on the other are occupied at equilibrium, for simple one-to-one binding.

For “TRIM24 PHD-Bromo (PHD-linker-Bromo segment, residues 824–1006), wild type (from UniProt O15164 824-1006) (domain or fragment)”, the Kd worked out at 8.6 µM.
